The values below are quoted from earlier work in paper PMC3985519.

By Kd is commonly meant the equilibrium constant for the complex coming apart.

The target of the data set is von Willebrand factor (Homo sapiens) (UniProt P04275).

As to Factor VIII (from UniProt P00451), the Kd is 0.5 nM.
